Test results: patent US20200190592A1, “PME-1 AS A BIOMARKER TO PREDICT AND DIAGNOSE AN INCREASED RISK OF ENDOMETRIAL CANCER AND GENE SILENCING OF PME-1 TO INHIBIT EPITHELIAL TO MESENCHYMAL TRANSITION” (Medical Diagnostic Laboratories, L.L.C., priority 2018, published 2020)

Experiments:
[1] = tested on: RL95-2 cells; assay: TUNEL assay; type: cell-based, human; settings: 100 nM siRNA, vs control siRNA; DNase positive control
Source text: To test for the involvement of apoptosis, we used siRNA against PME-1 or control siRNA and conducted an immunofluorescence assay called a TUNEL assay. In this assay, all cells were stained blue with the nuclear stain, DAPI, and cells that were undergoing apoptosis would stain green with the addition of fluorescein, which bound to fragmented DNA. Fragmented DNA is a hallmark of apoptotic cells. […] A positive control was included in the assay to determine that the assay conditions were optimal. In the positive control, RL95-2 cells were treated with DNase.
RL95-2 cells were plated in a chamber-slide and allowed to grow over night at 37° C. Cells were transfected the next day with 100 nM of siRNA (Thermo Scientific) using Dharmafect 1 transfection reagent (siRNA sequences are summarized in Table S2). Transfections were repeated on day four and the cultures were terminated the day after. The assay was performed according to the manufacturer's instructions (Roche Applied Science, counterstained with DAPI and photographed using Leica DM16000 B microscope. Cells incubated with 1U/μl of DNase I (Life Technologies) served as a positive control. The experiment was repeated three times.

[2] = biological target: T1, FLAG-tagged PME-1 S156A (catalytically inactive mutant) (human, UniProt Q9Y570 1-386); assay: FLAG co-immunoprecipitation from ECC-1 lysate, western blot with anti-Ppp6c
T1 construct: Expressed in ECC-1 cells and pulled down from lysate with FLAG resin; also called FLAG-PME-1 S156A; FLAG PME-1 S156A; not shown: FLAG tag; an N-terminal FLAG vector p3XFLAG-CMV-10 is named in the methods for RL95-2 cells
T1 sequence (looked up): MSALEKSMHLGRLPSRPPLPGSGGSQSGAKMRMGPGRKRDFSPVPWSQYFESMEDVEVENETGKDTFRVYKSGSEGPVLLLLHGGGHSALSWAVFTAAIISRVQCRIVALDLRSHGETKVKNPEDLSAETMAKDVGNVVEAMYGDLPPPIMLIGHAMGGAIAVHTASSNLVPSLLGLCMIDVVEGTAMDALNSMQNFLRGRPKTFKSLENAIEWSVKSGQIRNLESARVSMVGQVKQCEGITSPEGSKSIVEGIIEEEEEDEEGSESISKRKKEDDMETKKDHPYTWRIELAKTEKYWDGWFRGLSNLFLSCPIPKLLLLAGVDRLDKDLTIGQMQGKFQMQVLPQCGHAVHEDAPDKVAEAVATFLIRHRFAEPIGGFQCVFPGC

[3] = biological target: T2, FLAG-tagged PME-1 (over-expression of wild-type PME-1) (human, UniProt Q9Y570 1-386); assay: as above
T2 construct: Expressed in ECC-1 cells and pulled down from lysate with FLAG resin; also called FLAG-PME-1; protein methylesterase 1; not shown: FLAG tag; an N-terminal FLAG vector p3XFLAG-CMV-10 is named in the methods for RL95-2 cells
T2 sequence (looked up): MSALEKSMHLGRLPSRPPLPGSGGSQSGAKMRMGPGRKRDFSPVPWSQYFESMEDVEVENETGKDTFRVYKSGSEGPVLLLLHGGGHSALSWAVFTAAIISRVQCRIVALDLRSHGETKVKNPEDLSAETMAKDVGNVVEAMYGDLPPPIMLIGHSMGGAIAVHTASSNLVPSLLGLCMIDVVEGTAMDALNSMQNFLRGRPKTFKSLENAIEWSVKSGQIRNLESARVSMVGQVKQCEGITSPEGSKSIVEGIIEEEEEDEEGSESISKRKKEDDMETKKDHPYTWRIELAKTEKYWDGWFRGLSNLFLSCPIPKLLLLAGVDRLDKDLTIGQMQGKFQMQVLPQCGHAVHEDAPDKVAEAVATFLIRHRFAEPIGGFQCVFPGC

Molecule: PPME1 siRNA no. 1: siRNA, SEQ ID NO: 4: TGG CTG GTG TTG ATA GAT T, bp 959-977 (guide TGGCTGGTGTTGATAGATT; listed as DNA, chemistry not given here; listed as Homo sapiens)
- detection of apoptotic cells [1]: did not lead to detection of apoptotic cells

B1: Endogenous Ppp6c, the catalytic subunit of PP6 (enzyme, human, UniProt O00743 1-305, looked up)
chain: MAPLDLDKYVEIARLCKYLPENDLKRLCDYVCDLLLEESNVQPVSTPVTVCGDIHGQFYDLCELFRTGGQVPDTNYIFMGDFVDRGYYSLETFTYLLALKAKWPDRITLLRGNHESRQITQVYGFYDECQTKYGNANAWRYCTKVFDMLTVAALIDEQILCVHGGLSPDIKTLDQIRTIERNQEIPHKGAFCDLVWSDPEDVDTWAISPRGAGWLFGAKVTNEFVHINNLKLICRAHQLVHEGYKFMFDEKLVTVWSAPNYCYRCGNIASIMVFKDVNTREPKLFRAVPDSERVIPPRTTTPYFL
notes: Endogenous protein of ECC-1 cell lysate, probed by western blot with anti-Ppp6c; also called protein phosphatase 6 catalytic subunit
- binding result [2]: no binding
- binding result [3]: no binding
